Data published in the supplement of paper PMC11908140.

B1: library; numbered along this chain (parent)
chain: MRKPRAAVGSGHRKQAASQEGRQKHAKNNSQAKPSACDGLARQPEEVVLQASVSSYHLFRDVAEVTAFRGSLLSWYDQEKRDLPWRRRAEDEMDLDRRAYAVWVSEVMLQQTQVATVINYYTGWMQKWPTLQDLASASLEEVNQLWAGLGYYSRGRRLQEGARKVVEELGGHMPRTAETLQQLLPGVGRYTAGAIASIAFGQATGVVDGNVARVLCRVRAIGADPSSTLVSQQLWGLAQQLVDPARPGDFNQAAMELGATVCTPQRPLCSQCPVESLCRARQRVEQEQLLASGSLSGSPDVEECAPNTGQCHLCLPPSEPWDQTLGVVNFPRKASRKPPREESSATCVLEQPGALGAQILLVQRPNSGLLAGLWEFPSVTWEPSEQLQRKALLQELQRWAGPLPATHLRHLGEVVHTFSHIKLTYQVYGLALEGQTPVTTVPPGARWLTQEEFHTAAVSTAMKKVFRVYQGQQPGTCMGSKRSQVSSPCSRKKPRMGQQVLDNFFRSHISTDAHSLNSAAQ

Variants of: B1
Assay: 8OG:A repair function score (normalized; synonymous = 0, nonsense = -1) (normalized log-likelihood score); higher = more repair activity (WT-like)
Settings: with 8OG:A DNA repair reporter (GFP) in HEK-293 MUTYH KO cells
Summary of the method: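 With 10 pg/ml doxycycline, MUTYH knockout HEK-293 cells carrying lentiviral MUTYH cDNA NNN codon-scan libraries were co-transfected with mCherry and an 8OG:A GFP repair reporter. Viable mCherry+ cells were sorted into GFP+ (repair) and GFP− bins at 72 h, three replicates per tile, and tile amplicons were sequenced. Per-tile Rosace fitness scores were then normalized into a repair function score anchored on synonymous and nonsense distributions. Medians were fixed at 0 for synonymous and -1 for nonsense, excluding variants under 300 counts per million at the start.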

| Variant | 8OG:A repair function score |
| --- | --- |
| Q363C | -0.306 |
| Q363F | -0.479 |
| T308K | -0.0882 |
| L411K | -0.505 |
| Y469N | -0.738 |
| L257T | -0.763 |
| P383A | 0.0723 |
| P383N | -0.294 |
| K80C | -0.0206 |
| D243F | -0.786 |
| P402M | 0.138 |
| W381R | -0.0405 |
| L49C | 0.125 |
| V415C | 0.022 |
| V415Y | -0.275 |
| Q144L | -0.000148 |
| S138W | -0.724 |
| G171A | -0.18 |
| G171I | -0.703 |
| V206H | -1.02 |
| E168D | -0.0557 |
| E168L | -0.0373 |
| G372L | -0.351 |
| G471I | -0.00761 |

| Variant | 8OG:A repair function score |
| --- | --- |
| G471N | 0.00878 |
| T440S | 0.0249 |
| T440C | 0.0206 |
| T440V | -0.0931 |
| T440H | -0.111 |
| K463C | -0.196 |
| K463R | -0.0765 |
| Y425M | 0.236 |
| H514N | 0.00779 |
| L295A | -0.00496 |
| L83R | -0.559 |
| Q282Y | -0.0373 |
| V218P | -1.04 |
| E385R | -0.0734 |
| Y152W | -0.762 |
| G258P | -1.06 |
| G161H | -1.12 |
| Q111I | -1.18 |
| Y120M | -0.0214 |
| A162E | -1.14 |
| A162I | -0.523 |
| F504W | -0.0289 |
| W146P | -1.14 |
| R189W | -0.343 |

| Variant | 8OG:A repair function score |
| --- | --- |
| P273E | -0.952 |
| R217V | -1.01 |
| Q358C | 0.0229 |
| R340A | -0.0533 |
| S483Y | -0.0745 |
| S483M | -0.00708 |
| Q232G | 0.139 |
| V47C | 0.0227 |
| R389Q | -0.613 |
| C304K | -0.535 |
| C304D | -0.518 |
| T179E | -0.0168 |
| N366M | -0.0331 |
| R86W | -1.23 |
| L149C | -0.585 |
| S487K | 0.0147 |
| S487V | 0.0175 |
| Q450G | -0.0458 |
| C216E | -0.808 |
| C216I | -0.57 |
| C216K | -0.969 |
| A41S | -0.048 |
| G205T | -0.773 |
| G205P | 0.0348 |

| Variant | 8OG:A repair function score |
| --- | --- |
| V211I | -0.0557 |
| V274F | -0.303 |
| V274M | -0.0354 |
| V274S | -0.589 |
| Q499C | 0.00111 |
| R332W | 0.0485 |
| R332Y | -0.166 |
| P174N | -0.958 |
| A405S | 0.0326 |
| L315Y | 0.0406 |
| L315P | -0.0779 |
| H454T | 0.153 |
| I195W | -0.908 |
| I195D | -1.1 |
| E341Q | -0.0264 |
| S292F | -0.0271 |
| Y76Q | -1.53 |
| F505S | 0.0199 |
| Q159T | -0.0681 |
| E342W | -0.279 |
| A220V | -0.57 |
| G401L | -0.214 |
| G148Q | -0.44 |
| G148R | -0.782 |

| Variant | 8OG:A repair function score |
| --- | --- |
| F68A | -0.234 |
| P225R | -0.147 |
| R2P | -0.00444 |
| G155F | -0.526 |
| L349K | -1.07 |
| W321K | -0.189 |
| I221H | -0.866 |
| R156S | -0.193 |
| A513D | 0.0137 |
| A513S | 0.00165 |
| T116C | -0.0685 |
| V438Y | -0.0793 |
| L277Q | -0.0714 |
| A391Y | -0.00342 |
| Q484C | -0.0119 |
| A223W | -0.73 |
| A223D | -0.631 |
| A223Y | -0.608 |
| P317G | -0.0274 |
| P317V | 0.0214 |
| P317N | 0.0467 |
| E382F | 0.0805 |
| S136E | 0.0125 |
| S136V | 0.077 |

| Variant | 8OG:A repair function score |
| --- | --- |
| R409K | -0.145 |
| P331Y | -0.276 |
| T511N | -0.0682 |
| W235Y | -0.177 |
| Q397V | 0.0994 |
| Q397E | -0.364 |
| Q397P | -0.645 |
| K464C | -0.49 |
| M462K | -1.21 |
| V284I | -0.0683 |
| V348R | -1.43 |
| V53Q | -0.0248 |
| A115N | 0.178 |
| A115R | 0.092 |
| V485G | -0.0147 |
| V485E | -0.0478 |
| E92G | -0.183 |
| E92W | -0.152 |
| R81V | -0.851 |
| E287D | -0.0111 |
| K164Y | -0.0367 |
| K164Q | -0.101 |
| K164R | -0.0158 |
| I509Q | 0.0194 |

| Variant | 8OG:A repair function score |
| --- | --- |
| A177V | -0.207 |
| A354N | -0.255 |
| A354M | -0.19 |
| A354Y | -0.11 |
| P84L | -0.233 |
| N143F | -0.0267 |
| I359A | -0.485 |
| L501P | 0.0273 |
| D224L | -0.947 |
| D224G | -0.936 |
| D224Q | -0.87 |
| S343V | 0.0196 |
| V214T | -0.495 |
| L448G | -0.516 |
| P338D | -0.0378 |
| P338W | 0.053 |
| C314N | -0.553 |
| V166T | -0.155 |
| V102S | -0.376 |
| V102L | -0.259 |
| V102T | -0.0943 |
| M108I | -0.761 |
| Q50M | -0.0659 |
